Measurements published in US12398178 (PARABILIS MEDICINES, dated 2025).
Positions of bridges follow the written chain, without caps; N, C: chain ends. No end group written: not given here. Linker 15a = not defined here; Linker 15b = not defined here; Linker 10 = not defined here; Linker 11 = not defined here; Linker 12 = not defined here; Linker 13 = not defined here; Linker 16 = not defined here; Linker 7 = not defined here

T1: full-length β-Catenin (UniProt P35222 2-781, limits assumed)
T1 construct: mature; also called beta-catenin; beta-Catenin
T1 sequence (looked up): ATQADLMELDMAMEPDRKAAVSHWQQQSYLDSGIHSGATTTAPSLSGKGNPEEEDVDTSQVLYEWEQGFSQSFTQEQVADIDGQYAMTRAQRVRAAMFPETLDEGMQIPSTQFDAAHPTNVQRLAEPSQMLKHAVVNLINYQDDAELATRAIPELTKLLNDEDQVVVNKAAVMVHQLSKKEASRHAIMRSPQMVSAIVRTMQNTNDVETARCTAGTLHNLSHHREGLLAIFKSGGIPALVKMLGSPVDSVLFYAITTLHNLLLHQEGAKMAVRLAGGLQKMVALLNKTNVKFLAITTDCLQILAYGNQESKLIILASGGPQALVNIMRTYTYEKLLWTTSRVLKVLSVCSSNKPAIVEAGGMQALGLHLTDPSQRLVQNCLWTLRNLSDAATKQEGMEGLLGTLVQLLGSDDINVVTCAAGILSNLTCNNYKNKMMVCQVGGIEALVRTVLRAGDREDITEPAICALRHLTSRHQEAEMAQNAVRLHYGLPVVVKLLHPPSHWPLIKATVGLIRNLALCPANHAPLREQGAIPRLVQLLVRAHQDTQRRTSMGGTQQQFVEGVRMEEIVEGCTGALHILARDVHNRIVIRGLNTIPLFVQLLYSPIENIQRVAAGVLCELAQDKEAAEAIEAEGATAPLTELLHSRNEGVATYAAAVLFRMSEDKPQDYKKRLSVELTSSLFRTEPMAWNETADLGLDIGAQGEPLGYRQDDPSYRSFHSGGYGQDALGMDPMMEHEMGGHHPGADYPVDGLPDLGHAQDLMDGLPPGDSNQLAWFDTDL


Each binder was assayed against T1, full-length β-Catenin (assay: competition fluorescence polarization vs FITC-Axin peptide probe on full-length beta-catenin).
Experimental: Peptide assessment: In one assay for assessing binding to beta-catenin, peptide solutions were prepared in buffer (50 mM Tris pH 8.0, 250 mM NaCl, 2% glycerol, 0.5 mM EDTA, 0.02% w/v sodium azide) using a 3-fold serial dilution from 5 μM. Probe solution (15 nM full-length β-Catenin, 20 nM FITC labeled Axin peptide in buffer ([FAM-PEG1-RRWPR(S5)ILD(S5)HVRRVWR (SEQ ID NO: 44)] where the two S5 residues are stapled, as reported in: Proc Natl Acad Sci USA. 2012 Oct. 30; 109(44):17942-7)) was prepared and incubated for 5 minutes, then 40 μL per well plated in a black polystyrene 384-well plate (Corning). Equal volume of the titrated peptide was added to the plate and incubated protected from light for 15 minutes prior to read. Reads were performed on a Spectramax M5 (Molecular Devices) in duplicate.

Row | Binder | EC50 [µM]
1 | ADPAEDECILAAHMCRWW (linker 8-15 via Linker 7 (inferred); reading uncertain, synthetic cysteine-stapled peptide) [Peptide ID 8, ADPAEDECILAAHMCRWW, staple type Linker 7] | 0.255
2 | ADPALWACEHAALICETQ (linker 8-15 via Linker 13 (inferred); reading uncertain, synthetic cysteine-stapled peptide) [Peptide ID 43, ADPALWACEHAALICETQ, staple type Linker 13] | 4.59
3 | ADPAQWHCEHAALICELD (linker 8-15 via Linker 7 (inferred); reading uncertain, synthetic cysteine-stapled peptide) [Peptide ID 10, ADPAQWHCEHAALICELD, staple type Linker 7] | 0.417
4 | ADPATHRCEWAALHCELV (linker 8-15 via Linker 7 (inferred); reading uncertain, synthetic cysteine-stapled peptide) [Peptide ID 1, ADPATHRCEWAALHCELV, staple type Linker 7] | 5.2
5 | ADPALWACEHAALICETQ (linker 8-15 via Linker 11 (inferred); reading uncertain, synthetic cysteine-stapled peptide) [Peptide ID 41, ADPALWACEHAALICETQ, staple type Linker 11] | 3.02
6 | ADPAQDHCILDTHICRIW (linker 8-15 via Linker 7 (inferred); reading uncertain, synthetic cysteine-stapled peptide) [Peptide ID 6, ADPAQDHCILDTHICRIW, staple type Linker 7] | 0.047
7 | ADPALWACEHAALICETQ (linker 8-15 via Linker 10 (inferred); reading uncertain, synthetic cysteine-stapled peptide) [Peptide ID 40, ADPALWACEHAALICETQ, staple type Linker 10] | 9.55
8 | ADPATHRCEWAALHCELV (linker 8-15 via Linker 13 (inferred); reading uncertain, synthetic cysteine-stapled peptide) [Peptide ID 34, ADPATHRCEWAALHCELV, staple type Linker 13] | 4.32
9 | ADPALWACEHAALICETQ (linker 8-15 via Linker 15b (inferred); reading uncertain, synthetic cysteine-stapled peptide) [Peptide ID 45, ADPALWACEHAALICETQ, staple type Linker 15b] | 5.57
10 | ADPAEDECILNNHICRIW (linker 8-15 via Linker 7 (inferred); reading uncertain, synthetic cysteine-stapled peptide) [Peptide ID 7, ADPAEDECILNNHICRIW, staple type Linker 7] | 0.014
11 | ADPALADCILAAHMCQLW (linker 8-15 via Linker 7 (inferred); reading uncertain, synthetic cysteine-stapled peptide) [Peptide ID 4, ADPALADCILAAHMCQLW, staple type Linker 7] | 5.52
12 | ADPAHAECVLDYHICQIW (linker 8-15 via Linker 7 (inferred); reading uncertain, synthetic cysteine-stapled peptide) [Peptide ID 5, ADPAHAECVLDYHICQIW, staple type Linker 7] | 0.117
13 | ADPAYWLCEHAALICEVE (linker 8-15 via Linker 7 (inferred); reading uncertain, synthetic cysteine-stapled peptide) [Peptide ID 13, ADPAYWLCEHAALICEVE, staple type Linker 7] | 0.456
14 | ADPALWACEHAALICETQ (linker 8-15 via Linker 7 (inferred); reading uncertain, synthetic cysteine-stapled peptide) [Peptide ID 2, ADPALWACEHAALICETQ, staple type Linker 7] | 2.8
15 | ADPADWECEHAALICDAM (linker 8-15 via Linker 7 (inferred); reading uncertain, synthetic cysteine-stapled peptide) [Peptide ID 12, ADPADWECEHAALICDAM, staple type Linker 7] | 0.815
16 | ADPATHRCEWAALHCELV (linker 8-15 via Linker 12 (inferred); reading uncertain, synthetic cysteine-stapled peptide) [Peptide ID 33, ADPATHRCEWAALHCELV, staple type Linker 12] | 5.35
17 | ADPALWACEHAALICETQ (linker 8-15 via Linker 12 (inferred); reading uncertain, synthetic cysteine-stapled peptide) [Peptide ID 42, ADPALWACEHAALICETQ, staple type Linker 12] | 4.52
18 | ADPATHRCEWAALHCELV (linker 8-15 via Linker 11 (inferred); reading uncertain, synthetic cysteine-stapled peptide) [Peptide ID 32, ADPATHRCEWAALHCELV, staple type Linker 11] | 5.17
19 | ADPAPWQCEHAALLCELE (linker 8-15 via Linker 7 (inferred); reading uncertain, synthetic cysteine-stapled peptide) [Peptide ID 11, ADPAPWQCEHAALLCELE, staple type Linker 7] | 0.922
20 | ADPAQWPCEHAALLCEIE (linker 8-15 via Linker 7 (inferred); reading uncertain, synthetic cysteine-stapled peptide) [Peptide ID 14, ADPAQWPCEHAALLCEIE, staple type Linker 7] | 0.404
21 | ADPALWACEHAALICETQ (linker 8-15 via Linker 15a (inferred); reading uncertain, synthetic cysteine-stapled peptide) [Peptide ID 44, ADPALWACEHAALICETQ, staple type Linker 15a] | 7.33
22 | ADPALWACEHAALICETQ (linker 8-15 via Linker 16 (inferred); reading uncertain, synthetic cysteine-stapled peptide) [Peptide ID 46, ADPALWACEHAALICETQ, staple type Linker 16] | 5.82
